Measured values: patent US20200362029A1 (IMMUNOGEN, published 2020)

Columns and labels:
[1] = target: T1, human folate receptor alpha (FRα) on FRα-positive cells (KB, T47D, JHOS-4) (human, UniProt P15328 25-234); assay: competition FACS on FRα-positive T47D cells; Morrison antibody fixed at 0.8 nM, detected with anti-human FITC secondary; murine parental antibodies titrated (log axis -11 to -7, unit not given; text: 0.2 to 50 nM)
T1 construct: Endogenous FRα on human tumour cell lines; also called FOLR1; folate receptor 1
T1 sequence (P15328 25-234 limits assumed, stated change not applied): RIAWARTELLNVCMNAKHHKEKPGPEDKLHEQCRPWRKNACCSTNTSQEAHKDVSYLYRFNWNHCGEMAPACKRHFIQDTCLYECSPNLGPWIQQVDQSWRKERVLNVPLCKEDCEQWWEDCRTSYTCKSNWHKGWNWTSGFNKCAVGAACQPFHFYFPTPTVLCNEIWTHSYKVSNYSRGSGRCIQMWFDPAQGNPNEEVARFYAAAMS
Description: These eight constructs were further polished using ceramic hydroxyapatite chromatography to greater than 95% purity and subjected to further characterization. To account for the effects of overall molecule conformation or potential structural changes of the scFv arms on the binding of the biparatopic arms, the binding efficiency of each arm of the eight Morrison's constructs was assayed by a competition FACS assay. Briefly, FRα-positive T47D cells were incubated with 0.8 nM of a Morrison's antibody mixed with a corresponding murine parental antibody at a range of concentrations, generally from 50 nM to 0.2 nM. After incubation on ice for 2 hours, cells were washed from unbound antibodies, and bound Morrison's antibody was detected with secondary anti-human FITC-labeled antibody. Reduced binding of the Morrison's antibody in the presence of increasing concentration of the parental antibody indicated an effect on binding of the second set of arms.

recombinant FRα antigen = recombinant FRα antigen (human, UniProt P15328 25-234); assay: BLI (Octet96), IgG on anti-human- or anti-murine-Fc sensors, recombinant FRα in solution, 1:1 fit
recombinant FRα antigen, sequence (P15328 25-234 limits assumed): as the sequence (P15328 25-234 limits assumed, stated change not applied) above
Description: Table 10 summarizes the kinetic parameters of binding of Bin1 and Bin 2 antibodies with recombinant FRα antigen. KD values were obtained via biolayer interferometry performed on Octet96 system (Fortebio) essentially according to manufacturer's recommended procedure. Briefly, anti-human- or anti-murine −Fc sensors were presoaked in 1× Kinetic Buffer (Fortebio) for 10 min and incubated with 5 μg/mL of either Bin 1 or Bin 2 IgG for 5 min. The sensors were then sequentially moved to 1× Kinetic Buffer for 5 min to determine baseline, serial dilutions of antigen for association (10 min), and 1× Kinetic Buffer for dissociation (10 min). The raw data was collected, processed and fitted to a simple 1:1 binding model using Fortebio analysis software to determine the kinetic parameters Kon and Koff.

binding result [1]	Kd (recombinant FRα antigen)	koff (recombinant FRα antigen)	kon (recombinant FRα antigen)	Binder
binds				FR57-G1-Mov19scFv1 (Molecule 2: FR57-IgG1-mov19scFv1) (bispecific antibody, Tetravalent Morrison format with the Mov19 scFv on the C-terminus of the FR57 IgG1 heavy chain; also called FR57:Mov19scFv; FR57-M9346AscFv) heavy: not shown light: EIVLTQSPATLSVTPGDRVSLSCRASQNINNNLHWYQQKPGQSPRLLIKYVSQSVSGIPDRFSGSGSGTDFTLSISSVEPEDFGMYFCQQSNSWPHYTFGQGTKLEIKRTVAAPSVFIFPPSDEQLKSGTASVVCLLNNFYPREAKVQWKVDNALQSGNSQESVTEQDSKDSTYSLSSTLTLSKADYEKHKVYACEVTHQGLSSPVTKSFNRGEC
	1 nM	0.0004 s⁻¹	300000 M⁻¹ s⁻¹	FR57 antibody (antibody, V domains shown, Tested as an IgG; Only the variable domains are tied to the stand-alone antibody; also called huFR57; FR1-57) VH: EVQLVESGGGLVQPGGSRRLSCAASGFTFSSFGMHWVRQAPGKGLEWVAYISSGSSTISYADSVKGRFTISRDNSKKTLLLQMTSLRAEDTAMYYCAREAYGSSMEYWGQGTLVTVSS VL: EIVLTQSPATLSVTPGDRVSLSCRASQNINNNLHWYQQKPGQSPRLLIKYVSQSVSGIPDRFSGSGSGTDFTLSISSVEPEDFGMYFCQQSNSWPHYTFGQGTKLEIK

The next lines start with the binder.

Binder	binding result [1]	Kd (recombinant FRα antigen)	koff (recombinant FRα antigen)	kon (recombinant FRα antigen)
Mov19-G1-FR57scFv1 (Molecule-1: mov19-IgG1-FR57scFv1) (bispecific antibody, Tetravalent Morrison format with the FR57 scFv on the C-terminus of the Mov19 IgG1 heavy chain; also called Mov19:FR57scFv; M9346A-FR57scFv) heavy: not shown light: DIVLTQSPLSLAVSLGQPAIISCKASQSVSFAGTSLMHWYHQKPGQQPRLLIYRASNLEAGVPDRFSGSGSKTDFTLTISPVEAEDAATYYCQQSREYPYTFGGGTKLEIKRTVAAPSVFIFPPSDEQLKSGTASVVCLLNNFYPREAKVQWKVDNALQSGNSQESVTEQDSKDSTYSLSSTLTLSKADYEKHKVYACEVTHQGLSSPVTKSFNRGEC	binds			
huMov19 (M9346A) antibody (antibody, V domains shown, Humanized IgG1/kappa; also called huM9346A; huM9346A-biotin) VH: QVQLVQSGAEVVKPGASVKISCKASGYTFTGYFMNWVKQSPGQSLEWIGRIHPYDGDTFYNQKFQGKATLTVDKSSNTAHMELLSLTSEDFAVYYCTRYDGSRAMDYWGQGTTVTVSS VL: DIVLTQSPLSLAVSLGQPAIISCKASQSVSFAGTSLMHWYHQKPGQQPRLLIYRASNLEAGVPDRFSGSGSKTDFTLTISPVEAEDAATYYCQQSREYPYTFGGGTKLEIKR		0.6 nM	0.0003 s⁻¹	500000 M⁻¹ s⁻¹
